The DeepSol protein solubility set

Assay: soluble on expression in E. coli; label from the status in PepcDB or PDB records
For “MLGIDLGSNTLRAVQMDEKLNKLKEYEFVIGAAKNLNQSGEISKEAIQRLKNTLSILAKEQDLSKARAVATAAFRKASNTNEIFAHLKKEFGIDFKLIDAKSEAKISVLGMQSGLRRLKIWGEFAYCDLGGASCELSFGKSFKSFDFGIISFYEKNYHSYYKSCISYKKLIKKYPKFIINIKDKKLKIHFLIANPYLKHLAFRAFDEVAMIKKELRSLGAKTVVLNSGVPTTLSALKQNISYEKYEATKVNGKKLCHKDFLNYAIKLFHMEEKKAIKEVGTMRKNYLSAGCLLFYALFDKHKLLVIDEGLREGVCLASMKNIKF”, the “soluble on expression in E. coli” value was “not soluble”.
With “MGSDKIHHHHHHMQLLKELCSIHAPSGNEEPLKDFILEYIRSNAGSWSYQPVIYADNDLQDCIVLVFGNPRTAVFAHMDSIGFTVSYNNHLHPIGSPSAKEGYRLVGKDSNGDIEGVLKIVDEEWMLETDRLIDRGTEVTFKPDFREEGDFILTPYLDDRLGVWTALELAKTLEHGIIAFTCWEEHGGGSVAYLARWIYETFHVKQSLICDITWVTEGVEAGKGVAISMRDRMIPRKKYVNRIIELARQTDIPFQLEVEGAGASDGRELQLSPYPWDWCFIGAPEKDAHTPNECVHKKDIESMVGLYKYLMEKL” the “soluble on expression in E. coli” value was “not soluble”.
For “FAKLVRPPVQIYGIEGRYATALYSAASKQNKLEQVEKELLRVGQILKEPKMAASLLNPYVKRSVKVKSLSDMTAKEKFSPLTSNLINLLAENGRLTNTPAVISAFSTMMSVHRGEVPCTVTTASALDETTLTELKTVLKSFLSKGQVLKLEVKIDPSIMGGMIVRIGEKYVDMSAKTKIQKLSRAMREIL”, the “soluble on expression in E. coli” value was “soluble”.
With “MPIIRPEELPKLMRTISMSNLSIPTRCLLEWQLLTLIRPAEASATAWSEIDIENKQWCIPAERMKAKRDHIVPLSEQALELLEIMRPISGNRQYVFPSRNDPRKPMNSQTANAALKRIGYSGKLVAHGLRSIASTAMNEAGFNADVIEAALAHSDKLEHHHHHH” the “soluble on expression in E. coli” value was “not soluble”.
For “MSLSITRRVRLSVDTCCYEAEIAGILRPQLLKGRMSVREEFDAWAAEGKDRGMEDRHWHTAKHVLARMPVEPGDTVLDLGTGSGYALRALRDTNDAGPCYGLDGSPEMLRNAREYTDDDGIGFLRGDFDALPFATDSIDHVFSMEAFYYASDPPHTLEEIARVLRPGGTANIAVNYYEENVHSHEWQEFIDIEMTRWSADEYREAFREAGLAVAAQDTIPDREVEIPPADTFPTDEFETREAMVERYRELGTLLTVGVATEGHHHHHH”, the “soluble on expression in E. coli” value was “soluble”.
With “MINRKIGFIGAGKMGSALMQGIIKAGIVQPENIGASDVYEPFLKELQTKLGIRVSTDNTVIVRESDILILAVKPQTLGSVLENLKNEITSEKLVISIAAGVPLSTYEGALLEGTRVVRVMPNIAATVSEAASGISPGKNATPEDMKDALTIFSAVGTAVQVPESLMDAVTGLSGSGPAFIFPVIEAMADGAVLEGMDRKSALTLAAQTVLGAAKMALETGMHPGELKDMVTSPAGTTIQGVHALEEAGIRAAFMNAVIRASERSRELGKKAAALEHHHHHH” the “soluble on expression in E. coli” value was “soluble”.
In the case of “MSRCKRCLLPHSAPGAAVDSSGICAFCRSYVPNDKNLSDQLHQQRQLDLEKALADCRGKGPYDVLVCLSGGKDSLYLLYRLKVEYKLNVLAFTTDVNIPDIAWNNIHRTIQKLDIDHLVYRPSAQFYRKLFRYLLMNQEERGAVYTVSYVYAPLFEGDALQVAMEKGIPLVLAGYSPGQPEPERMEFEFSRKLITETDWTPPGLRQSGEFTEEELARFWNPKRFPADTRFPRYLAPFHAWDYDQEAMIRKVHDLELVKRRAHGNPIYSNYPINWLLMYSDLKHFGYNPYAPEFSALIRAGKASRAYWWFMTPIVNFIIRNKLLIGRNTVDQLQQLGLQEDDLKITRPRGAYDPEID”, the “soluble on expression in E. coli” value is reported as “not soluble”.
For “NKDWRINGYVNFSRNENKITELPANMVQENYSPKNGAYAARAEVGRPIGSFYGYRYKGVYQNTDATYARDAEGNVMNDAKGRPIVMKNLTATCQPGDAMYEDINHDGVINQYDIVYLGNANPTLTGGAGLTVKYKQFSINTFFHGRFGQSVVNTARMNNESMHGNANQSTAVLRRWKNEGDITDIPRALYGEGFNYLGSDRFVEDTSFLRLKQLTLNYAFPKSICNKLGITSLTCFVTGYNLFTWSSYTGQDPEVNLPSRPTDLATDGATTPVSRRYTFGFNLSF”, the “soluble on expression in E. coli” value was “not soluble”.
With “MGSDKIHHHHHHMKKLLNTLYVTSENSYLGLDGENVVVYDDKNEIGRLPLHNLEAIISFGYRGTSPALMGACADRNISLCYLTPQGKFLARVSGKVKGNVVLRKQQFQSSSEDIKCLEIAKNCILGKVYNSRWVLERAIRDHSMQIDVDKVKKASIKLKEFLDYIQNSQSMNQLRGYEGEAASIYFGVFDELILQQKKDFFFQGRNRRPPLDNVNAMLSFTYTLLTTQITSALEVVGLDPYVGYMHTERPGRVSLSLDLIEELRAVMADRFVLSLINKKIVNGKSFTKKENGAVLMDTDIRKKLLSEWQNKKKEIITHPYLNEKVEWGMVPFVQAMLLARYLRGDLDEYPVFLWK” the “soluble on expression in E. coli” value was “not soluble”.
With “GMPNFSKNEEVLFSAVNEIFEEKIPFNKIIGLKVRFISPEQVKLSFEMRDELIGNAIRRMLYGGVISSAIDMTAGLAAFMGFQEKMSGKPMEEKLAMIGRLSTMSLHVEYLRPGLGREFVCTGYNVRTGNKVAVIRTELMNDQDELIAVGSVSYILV” the “soluble on expression in E. coli” value was “soluble”.
For “MATLRIGLVSISDRASSGVYQDKGIPALEEWLTSALTTPFELETRLIPDEQAIIEQTLCELVDEMSCHLVLTTGGTGPARRDVTPDATLAVADREMPGFGEQMRQISLHFVPTAILSRQVGVIRKQALILNLPGQPKSIKETLEGVKDAEGNVVVHGIFASVPYCIQLLEGPYVETAPEVVAAFRPKSARRDVSE”, the “soluble on expression in E. coli” value was “soluble”.
In the case of “MGRLSEVFEVRERYVPQIGRPSYLLVSLPDAGLVGSISGEFLINYLNLREYGEIYSNKHLPPISHVVNGVAKSPIRLYHYDNFLLLHSWIAIPANSINHLANLVVSYAEKYGIQTIISITGVPVPNRLDLEKPTPYWVASSEDFAKELDSLNLMKKFVEGYVSGPYAPILFQSAKKLIRNLLIVVESFLDLPDPEAAAVALDILSKMLGFKVDTSSLLKEAEEIRERIKGLMQQTRQELPNYSGLRPSTYA”, the “soluble on expression in E. coli” value is reported as “not soluble”.
For “MARTREFDTEAAVSRAMELFWTRGYEATSVRDLTGHLGIGQGSLYAAFGDKDGLYRAALEHYRTTLAAAALRSLEEGTDARSAIRTMLVERIRIAVDDNGRGCLAVNAACERLPEDAATRRTVRDMQDAGRDALTEVLRVAAERGEIAKRHDPHTLAAFLVTFLNGLLVSSKITPDVRALEPLVEVALAALD”, the “soluble on expression in E. coli” value was “not soluble”.
With “MGSDKIHHHHHHMHRDTVFDLIGIGFGPSNLALAVRLAEEAGVPDLAHCFIERQPEFGWHRGMLLDDCRMQISFLKDLVTMRDPKSRFTFINYLFERGRLADFVNLKSFYPTRVEFHDYLAWVAASFDDRVNYGQTVTGIEAVKATARTNEVEALRVFSRDSEGREWQRVTRALSVGIGGGAQVPEAFAALGTHNIVHSSQYLTSIDRVVGPASSARKRVAVIGAGQSAAEVFVDLTRRYPHVDASLIIRSGALKPADDSPFVNEIFSPAFTDVVYAQPRDGRRALIERFRDTNYAVVDRPLIEQIYEMLYLQNVCAEPRHRLLANTGIETAVRTVNGRIELTLRDRLNGHARAEQFDALVLATGYRRDTHLDLLEGLAPHLGEALAQGNVERDYRLATPASFKPRIYLQGCCEDSHGLSDTLLSVLALRSDEIAASLAHHAAQDRSAGRAGEAQANATAASRMAFAL” the “soluble on expression in E. coli” value was “not soluble”.
In the case of “MGSDKIHHHHHHMKFIVSSTALFSHLQAVSRVINSKNALPILDCFLFQLEDGTLSVTVSDSETTMVTSVEVNESDSNGKFAVAAKTLLDALKEIPEQPLTFDIKPDTYEITVQYQNGKYSLMGQNADEFPQSATLGDNAVRVEMEAQILLGGINRSVFATADDELRPVMNGIYFDITTEDITMVASDGHKLVRCKTLAARGNERAAFILPKKPATLLKNLLPKESGMVVIEFDERNAVFTLESYRMVCRLIEGRYPNYNSVIPQNNPHKVTVDRMQLMGALRRVSIFSSQASSLIKLRMQENQIVVSAQDIDFSTSAEETQVCQYAGAAMSIGFKSTFLIDILNNISADEVVIELADPSRAGVIIPVEQEENEDLLMLLMPMMLND”, the “soluble on expression in E. coli” value is reported as “not soluble”.
In the case of “MSWKHIKIPNGDTMIFCNSFITRKSSMNIVVTHTPIVTTLEMQKAYEPLAKHNVNIFAFDFSGTGKSDGYEKDFSRNSIVKDLDSVITYIEKNYSSNIHLYGNTGIGGMFAQYYACSDNKLKSFAQFACVDYKNTTGVGYTYLTVKLLNFFFKFLPNFHITVKPPKYKGYNEVYDNEFYKIFEKKNPHIWKNSTKIINTMLECFIAKDSKIKDGVNIPTLVFKTLHDRYFKTQYFDSYYNSLKCKKKLVEINNVHNSYYIDSEKFCQEAYDWFVENQ”, the “soluble on expression in E. coli” value is reported as “not soluble”.
For “MTETKDKQLSRIVLKGFKSIAKCDLEISRVNILIGANGAGKSNFIGFFRMVGQLVEENLQVFVSRQGSPDALLHFGRKTTEHLEFQLYFGNNGYFATLEPTQDNRLMFARESFWWNMSGEHEIGRGHFETKVLTSTRTGIDEYVLSAMQQWRVYHFHDTSESAYIKQPHGINDNAYLRPDARNLASFLYLLRNSYPASYQRIVKTIRLVAPFFGDFYLRPAPQNKEVIELEWFERGQDIPFKAYLLSDGTLRFMCLATVFLQPEDLQPETILVDEPELGLHPYAITVLASLMRTASKQVIVSTQSIELLNQFEAKDVIVVDRSEGSSYLRRLNQGDRIHFTGYSLLEHHHHHH”, the “soluble on expression in E. coli” value was “soluble”.
For “MQLKTEYGKIDPYITKDGSIIRELMHPAIHGNSGQSLAEATVPAGGQTMLHKHAVAEEIYHITEGCGIMTLGGQEFEIRKGDTVCILPGTPHRIMNTGEKELKILCCCAPAYSHEDTELMKLEHHHHHH”, the “soluble on expression in E. coli” value was “soluble”.
In the case of “MAHHHHHHMEDVRPVTSPLTEDTAYTRCLRGAKEAKERGNTAISDKNFKEASFQYKKALLFLSEYIPGDGGFSEDALIDMLARRRGVATPRDLSPGRKSELMDLYVTVMNNLAVADMRLCRFDKGVEHTTKVLNVPGQEKNRKALWRRAECHVQRGHIEEAEKDVDVLAACAEGNGQQSEEVVEQLRMKIKEKKKQLVREERAICKKMFEHGS”, the “soluble on expression in E. coli” value is reported as “soluble”.
In the case of “MGSDKIHHHHHHMRRKIPSTAALICFEAAARNESFTKAAQELALTQGAVCRQIGGLEAFLNVELFRRSRRGVRLTEAGLSYSRQVAAQLDAVERDTLSVMRQQGANVIELAVVPTFGTQWLLPRLKDFQQRHPEVTVNLTNRTRPFLFADTTFDAAIYFGDADWSGTQSHQLMGENPVPVCSPALLNGQGMLEARHIAQLPLLQQSTRPYAWRQWFGSVGMNVERDMTGPRYELFSMLAQAAMHDMGIALIPPFLIQRELEEGRLVVANRHALSSDKAYYLMIPERKVESASLRAFRDWLVSQAQAYINSSGTNAAN”, the “soluble on expression in E. coli” value is reported as “not soluble”.
In the case of “MGSDKIHHHHHHMNNFFTRVDNLSRLSVEKHNVAFSLFDWPAHIAEDTWWQSPDVLSIALTDHIEQWDEAQLIKLAKWECINSFSLNYTGELELIQEVSRILDKVALSDAREYLYHLIDEENQHMWYFQKFCRAYGGKVYPNKKFQIEKQLMSPAKEHFLVFARILIFEEIGHYYNIQNARDSRVHPFVREINEAHYKDESRHIAYGRQVLEHLAKDAITDEGDALWLGQQLDKSIAINIAALYNPQAYRDAGITKGMALRESLLNHPNRIELHETKLLGSFKRHAERLGITLTDTRK”, the “soluble on expression in E. coli” value is reported as “not soluble”.
